Reference: patent US20250382355A1 (Merck Sharp & Dohme, published 2025)
Residue numbers refer to the chain shown, from its start.

B1: 7A9 VHH-Fc (Fc fusion)
chain: QVQLVESGGGLVQAGGSLRLSCSASGGTASRSAMGWFRQAPGKEREFVAGISRRNSGSTYVADSYEDSVKGRFTISRDNAKNTIYLQMNSLKPEDTAVYYCAAEPTLGWYVPRRSVEYEYWGQGTQVTVSS
B2: 8E9 VHH-Fc (Fc fusion)
chain: QVQLVESGGGLVEAGGSLRLSCVASGSSSSINAMGWYRQAPGKQRELVASISHDGETKYANSVKGRFTISRGNAKNTIYLQMNSLKPEDTAVYYCVGDVAWVVVAGEYDYWGQGTQVTVSS
B3: 11F8 VHH-Fc (Fc fusion)
chain: QVQLVESGGGLVQAGGSLRLSCAASGRTVGYYAVGWFRQAPGKERDFVAAISWSGRNTNYADSVTGRFTIFRDNAKNTVDLQMNSLKPEDTAVYYCAADYWNYGSGSEVPNNYDTWGQGTQVTVSS
B4: 15H1 VHH-Fc (Fc fusion)
chain: QVQLVESGGGLAQAGGSLRLSCASSGLIFSGSAMGWFRQAPGKEREFVGVISWNGRTTYADSVKGRFTISRDDAVNMVWLQMNNLKPEDTAVYYCAADHLNYGSGDVNPRTYDYWGQGTQVTVSS
B5: 13C8 VHH-Fc (Fc fusion)
chain: QVQLVESGGGLVQAGGSLRLSCAASGRTVNKYMTGWFRQTPGKEREFVASIDWSSTTTHYANSVKGRFTISRDKVKNTVYLQMNGLKPEDTAVYYCAAHQDSSYGYTILPIDYDSWGQGTQVTVSS
B6: 5D7 VHH-Fc (Fc fusion)
chain: QVQLVESGGGLVQAGGSLRLSCAASGRTGSRYIMGWFRQAPGKEREFVAAINWRGDSTYYADSVKGRFTIARDNAKNTAYLQMNSLKPEDTAVYYCVADRGESYYYTRSTEYTYWGQGTQVTVSS
B7: 1E4 VHH-Fc (Fc fusion)
chain: QVLLVESGGGLVQAGGLLRLACSASGRTFTENVMGWFRQAPGKEREFVAAINWNTGSTYYSDSRKGRFTISKDNAKNTMFLQINNLKPEDTAVYYCGGTSSSYYYIGEFIPDYWGQGTQVTVSS
B8: 15H7 VHH-Fc (Fc fusion)
chain: QVQLVESGGRLVQAGGSLRLSCAAPGRTFRNLTLGWFRQAPGKEREFVASTSWPDDEMTYYTDSVKGRFTISRDNAKNTVYLQMNSLKPEDTAVYYCAAASWSGRSTLSYDYDYWGQGTQVTVST
B9: 3D4 VHH-Fc (Fc fusion)
chain: QVQLVESGGGLVQPGGSLRLSCAASGFTLDLNSIGWFRQAPGKEREGVSCISPSGSRMHYADSVKGRFTISRDNAKNTVYLQMNSLKPEDTAVYYCATGSPSYHYCSMYGLEYDSWGQGTQVTVPS
B10: 19C10 VHH-Fc (Fc fusion)
chain: B9 chain with G55A, R57S, M58T, S100T, S115D, P125S

These binders were tested against T1, SARS-CoV-2 prefusion-stabilized spike protein (SARS-CoV-2-PreS) (SARS-CoV-2, UniProt P0DTC2 14-1208) (assay: ELISA).

Binder | EC50 [nM]
B1 | 0.16
B2 | 0.08
B3 | 0.19
B4 | 0.14
B5 | 0.09
B6 | 0.11
B7 | 0.04
B8 | 0.05
B9 | 0.13
B10 | 0.06

What follows are binders tested against SARS-CoV-2 Alpha B.1.1.7 spike on pseudovirus (SARS-CoV-2) (assay: cell-based or functional assay).

Binder | pseudovirus neutralization IC50 [nM]
B7 | 2.2
B9 | 1.5
B10 | 0.85

These binders were tested against SARS-CoV-2 Beta B.1.351 spike on pseudovirus (SARS-CoV-2) (assay: cell-based or functional assay).

Binder | pseudovirus neutralization IC50 [nM]
B7 | 0.58
B9 | 1.1
B10 | 0.66

The binders below were run against SARS-CoV-2 Gamma P.1 spike on pseudovirus (SARS-CoV-2) (assay: cell-based or functional assay).

Binder | pseudovirus neutralization IC50 [nM]
B7 | 2.6
B9 | 0.59
B10 | 0.8

What follows are binders tested against SARS-CoV-2 Omicron spike on pseudovirus (SARS-CoV-2) (assay: cell-based or functional assay).

Binder | pseudovirus neutralization IC50 [nM]
B1 | 44
B2 | 429
B6 | 221

These binders were tested against T1, SARS-CoV-2 prefusion-stabilized spike … (assay: Biacore, apparent affinity).

Binder | Kd [nM]
B1 | < 0.2
B2 | < 0.2
B3 | < 0.2
B4 | < 0.2
B5 | < 0.2
B6 | < 0.2
B7 | < 0.2
B8 | < 0.2
B9 | < 0.2
B10 | < 0.2

The binders below were run against T2, Biotinylated CoV2 Spike ECD PreS-AVI protein (SARS-CoV-2, UniProt P0DTC2 14-1208) (assay: Octet binning; competitor 7A9).

Binder | binning response
B1 | 0.06
B2 | 0.39
B3 | 0.35
B4 | 0.35
B5 | 0.37
B6 | 0.31
B7 | 0.26
B8 | 0.37
B9 | 0.32
B10 | 0.36

What follows are binders tested against T2, Biotinylated CoV2 Spike ECD PreS-AVI … (assay: Octet binning; competitor 8E9).

Binder | binning response
B1 | 0.37
B2 | 0.08
B3 | 0.12
B4 | 0.08
B5 | 0.09
B6 | 0.1
B7 | 0.09
B8 | 0.06
B9 | 0.08
B10 | 0.1

These binders were tested against T2, Biotinylated CoV2 Spike ECD PreS-AVI … (assay: Octet binning; competitor 9B2).

Binder | binning response
B1 | 0.38
B2 | 0.11
B3 | 0.13
B4 | 0.08
B5 | 0.11
B6 | 0.12
B7 | 0.11
B8 | 0.08
B9 | 0.09
B10 | 0.11

These binders were tested against T2, Biotinylated CoV2 Spike ECD PreS-AVI … (assay: Octet binning; competitor 11F8).

Binder | binning response
B1 | 0.32
B2 | 0.11
B3 | 0.14
B4 | 0.09
B5 | 0.11
B6 | 0.12
B7 | 0.11
B8 | 0.11
B9 | 0.09
B10 | 0.12

What follows are binders tested against T2, Biotinylated CoV2 Spike ECD PreS-AVI … (assay: Octet binning; competitor 13C8).

Binder | binning response
B1 | 0.52
B2 | 0.11
B3 | 0.15
B4 | 0.1
B5 | 0.1
B6 | 0.15
B7 | 0.12
B8 | 0.08
B9 | 0.1
B10 | 0.1

Each binder was assayed against T2, Biotinylated CoV2 Spike ECD PreS-AVI … (assay: Octet binning; competitor 15H1).

Binder | binning response
B1 | 0.37
B2 | 0.13
B3 | 0.15
B4 | 0.11
B5 | 0.11
B6 | 0.16
B7 | 0.11
B8 | 0.09
B9 | 0.1
B10 | 0.1

Each binder was assayed against T2, Biotinylated CoV2 Spike ECD PreS-AVI … (assay: Octet binning; competitor 15H7).

Binder | binning response
B1 | 0.34
B2 | 0.11
B3 | 0.14
B4 | 0.11
B5 | 0.1
B6 | 0.15
B7 | 0.11
B8 | 0.1
B9 | 0.09
B10 | 0.1

What follows are binders tested against T2, Biotinylated CoV2 Spike ECD PreS-AVI … (assay: Octet binning; competitor 1A11).

Binder | binning response
B1 | 0.32
B2 | 0.09
B3 | 0.12
B4 | 0.08
B5 | 0.11
B6 | 0.12
B7 | 0.09
B8 | 0.09
B9 | 0.08
B10 | 0.08

These binders were tested against T2, Biotinylated CoV2 Spike ECD PreS-AVI … (assay: Octet binning; competitor Std-A).

Binder | binning response
B1 | 0.34
B2 | 0.36
B3 | 0.17
B4 | 0.35
B5 | 0.34
B6 | 0.28
B7 | 0.28
B8 | 0.36
B9 | 0.34
B10 | 0.35

The binders below were run against T2, Biotinylated CoV2 Spike ECD PreS-AVI … (assay: Octet binning; competitor Std-B).

Binder | binning response
B1 | 0.3
B2 | 0.34
B3 | 0.29
B4 | 0.3
B5 | 0.31
B6 | 0.25
B7 | 0.24
B8 | 0.32
B9 | 0.31
B10 | 0.35

The binders below were run against T2, Biotinylated CoV2 Spike ECD PreS-AVI … (assay: Octet binning; competitor Std-D).

Binder | binning response
B1 | 0.46
B2 | 0.04
B3 | 0.08
B4 | 0.05
B5 | 0.04
B6 | 0.12
B7 | 0.08
B8 | 0.08
B9 | 0.04
B10 | 0.04
